Patent US20260193344A1 (H LUNDBECK A S, published 2026)

T1: human ACTH 1-39 (human, not fully specified; N-terminal biotin in the ELISA and HTRF binding assays (p-1487, p-1488); 125I on Tyr23 in Example 9 (p-1542); unlabelled in SPR. Letters unchanged.)
T1 peptide: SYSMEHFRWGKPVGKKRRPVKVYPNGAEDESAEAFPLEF

T2: ACTH 1-24 (human)
T2 peptide: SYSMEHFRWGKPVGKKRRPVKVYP

T3: human alpha-MSH (ACTH 1-13) (human, not fully specified; ends and bridges not checked)
T3 peptide: Ac-SYSMEHFRWGKPV-NH2

B1: Ab1 (antibody, V domains shown)
VH: QSVKESGGRLVTPGTPLTLTCTVSGFSLSNYDMIWVRQAPGKGLESIGMIYDDGDTYYASWAKGRFTISKTSTTVDLKIISPTTEDTATYFCVKGVSNHWGPGTLVTVSS
VL: DVVMTQTPASVEAAVGGTVTIKCQASQSISSYLAWYQQKPGQPPKLLIYSASTLASGVPSRFKGRGSGTEFTLTISDLECADAATYYCQSYDGSSGSSYGVGFGGGTEVVVKR
notes: Full-length rabbit/human chimeric antibody, HEK-293
B2: Ab11 (antibody, V domains shown)
VH: QSLEESGGRLVTPGTSLTLTCTASGFSLSAYDILWVRQAPGKGLESIGMMYDDGDTYYATWAKGRFIISRTSTTMDLKIISPTTEDTATYFCVKGVSNIWGQGTLVTVSS
VL: DIVMTQIPASVEAAVGGTVTIKCQASQSIDSSLAWYQQKPGQPPKLLIYSASTLASGVPSRFKGSGSGTEFTLTIGDLECADAATYYCQSYDGSSSSYYGIGFGGGTEVVVKR
B3: Ab3 (antibody, V domains shown)
VH: QSLEESGGRLVTPGTPLTLTCTVSGSSLSNFDMIWVRQAPGKGLESIGIIYDFGSTYYASWAKGRFTISRTSSTTVDLKIISPTIEDTATYFCVKGVSNIWGQGTLVTVSS
VL: DVVMTQTPASVEAAVGGTVTIKCQASEDISSNLAWYQQKLGQPPKLLIYSASTLASGVPSRFKGSGSGTEFTLAISDLECADAATYYCQSYDGSSSSSYGIGFGGGTEVVVKR
B4: Ab10 (antibody, V domains shown)
VH: QSVEESGGRLVTPGTPLTLTCTVSGFSLSSADMIWVRQAPGKGLESIGMIYDDGDTYYATWAKGRFTISKTSTTVDLKIISPTTEDTATYFCVKGVSSVWGQGTLVTVSS
VL: DVVMTQTPASVEAAVGGTVTINCQASENIYRSLAWYQQKPGQPPKLLIYSASTLASGVPSRFKGSGSGTEFTLTISDLECADAATYYCQSYDGSSSSSYGVGFGGGTEVVVKR
B5: Ab12 (antibody, V domains shown)
VH: QSVEESGGRLVTPGTPLTLTCTVSGSSLSDYDMIWVRQAPGKGLESIGIIYDDGDTYYATWAKGRFTISKTSTTVDLRIISPTTEDTATYFCVKGVSNMWGPGTLVTVSS
VL: DVVMTQTPSSVSAAVGGTVTIKCQASQSIGSSLAWYQQKPGQRPKLLIYAASTLASGVPSRFKGSGSGTEFTLTISDLECADAATYYCQSYDGSSSSSYGVGFGGGTEVVVKR
B6: Ab2 (antibody, V domains shown)
VH: QSVEESGGRLVTPGTPLTLTCTVSGFSLSKYDMIWVRQAPGKGLESIGIIYDDGDTYYASWAKGRFTISQTSTTVDLKIISPTTEDTATYFCVKGVSNIWGQGTLVTVSS
VL: DVVMTQTPASVEAAVGGTVTIKCQASQSISNYLAWYQQKTGQPPKLLIYSASTLASGVPSRFKGSGSGTEFTLTISDLECADAATYYCQSYEGSSSSSYGVGFGGGTEVVVKR
B7: Ab13 (antibody, human IgG1, kappa, N297A, V domains shown)
VH: QQLEESGGGLVKPGGTLTLTCTASGFSFSSGYDICWARQGPGKGLEWIGCIDTGSGNTYYASWAKGRFTMSRTSSTTVTLQVTSLTAADTATYFCAKGISSIWGPGTLVTVSS
VL: DIVMTQTPASVSEPVGGTVTIKCQASQTISSDLAWYQQKPGQPPKLLIYAASKLTSGVSSRFKGGGTGTQFTLTISDLECADAATYYCQTYYDIIDDGCTFGGGTEVVVKR
B8: Ab13.H (antibody, human IgG1, kappa, N297A, V domains shown)
VH: EVQLVESGGGLVQPGGSLRLSCAASGFTVSSGYDICWVRQAPGKGLEWIGCIDTGSGNTYYASSAKGRFTMSRDNSKNTVYLQMNSLRAEDTAVYYCAKGISSIWGQGTLVTVSS
VL: DIQMTQSPSTLSASVGDRVTITCQASQTISSDLAWYQQKPGKAPKLLIYAASKLTSGVPSRFSGSGSGTEFTLTISSLQPDDFATYYCQTYYDIIDDGATFGGGTKVEIKR
B9: Ab7 (antibody, V domains shown)
VH: QSVEESGGRLVTPGTPLTLTCTVSGFSLSSYAMSWVRQAPGEGLEWIGIISDSGSTYYASWAKGRFTISKTSTTVDLRITSPTTEDTATYFCAREPEYGYDDYGDWVSDLWGQGTLVTVSS
VL: DIVMTQTPASVEAAVGGTVTIKCQASQSISDYLSWYQQKPGQPPKLLIYRASTLASGVPSRFKGSGSGTQFTLTISDLECADAATYYCQSYYYSSSITYRNAFGGGTEVVVKR
notes: as for B1
B10: Ab6 (antibody, V domains shown)
VH: QSVEESGGRLVTPGTPLTLTCTVSGFSLTDYAMSWVRQAPGEGLEWIGIISDSGSTYYASWAKGRFTFSKTSTTVDLRITSPTTEDTATYFCAREPEYGYDEYGDWVSDLWGPGTLVTVSS
VL: DIVMTQTPASVEAAVGGAVTIKCQATQSIGNNLAWYQQKPGQPPKLLIYRASTLASGVPSRFKGSGSGTEFTLTISDLECADAATYYCQSYYYSSSITYHNAFGGGTEVVVKR
B11: Ab9 (antibody, V domains shown)
VH: QSVEESGGRLVTPGTPLTLTCTVSGFSLNSYAMSWVRQAPGEGLEWIGIISDSGRTYYASWAKGRFTISKTSTTVDLKITSPTTEDTATYFCAREPEYGYDDYGDWVSDLWGPGTLVTVSS
VL: DVVMTQTPASVEAAVGGTVTIKCQASQSISSYLSWYQQKPGQPPKLLIYRASTLASGVPSRFKGSGSGTQFTLTISDLECADAATYYCQSYYYSSSITYRNAFGGGTEVVVKR
B12: Ab5 (antibody, V domains shown)
VH: QSVEESGGRLVTPGTPLTLTCTVSGFSLSSYAMSWVRQAPGEGLEWIGIISDSGSTYYASWAKGRFTISKTSTTVDLKITSPTTEDTATYFCAREPEYGYDDYGDWVSDLWGQGTLVTVSS
VL: DIVMTQTPASVSEPVGGTVTIKCQASQSISSYLSWYQQKPGQPPKLLIYRASTLASGVPSRFKGSGSGTQFTLTISDLECADAATYYCQSYYYSSSITYRNAFGGGTEVVVKR

Legend:
[1] = target: T1, human ACTH 1-39; experiment: cell-based or functional assay
[2] = target: T1, human ACTH 1-39; experiment: cell-based or functional assay
[3] = target: T1, human ACTH 1-39; experiment: cell-based or functional assay
[4] = target: T1, human ACTH 1-39; experiment: cell-based or functional assay
[5] = target: T1, human ACTH 1-39; experiment: SPR (ProteOn XPR36), antibody immobilized
Protocol: (§1) Antibody was immobilized to the surface of general amine coupling (GLC or GLM) Chips (Bio-Rad). […] Surfaces were regenerated between analyte queries using 10 mM glycine at pH 2.0.

[6] = target: T2, ACTH 1-24; experiment: cell-based or functional assay
[7] = target: T3, human alpha-MSH (ACTH 1-13); experiment: SPR (ProteOn XPR36), antibody immobilized
Protocol: as §1

Binder | IC50, ACTH-induced cAMP, MC2R cells [1] [nM] | IC50, ACTH-induced cAMP reporter, MC1R cells [2] [nM] | IC50, ACTH-induced cAMP, MC3R cells [3] [nM] | IC50, ACTH-induced cAMP, MC4R cells [3] [nM] | IC50, ACTH-induced cAMP, MC5R cells [3] [nM] | IC50, ACTH-induced cortisol, Y1 cells [4] [nM] | kon [5] [M⁻¹ s⁻¹] | IC50, ACTH 1-24 induced cAMP, MC2R cells [6] [nM] | kon [7] [M⁻¹ s⁻¹]
B1 | 0.14 | 2.38 | 101 | 56.4 | 1100 | 2.36 | 1e+06 |  | 
B2 | 0.03 | 1.49 | 108 | 49.4 | 4200 | 1.53 |  |  | 
B3 | 0.29 | 4.12 | 58.7 | 54.2 | 1100 | 7.72 |  | 0.8 | 
B4 | 0.16 | 2.14 | 133 | 66.3 | 5400 | 5.98 |  |  | 
B5 | 0.05 | 1.66 |  |  |  | 2.68 |  |  | 
B6 | 0.25 | 3.62 | 79 | 54.5 | 1100 |  |  | 1.3 | 
B7 |  |  |  |  |  |  |  | 1 | 
B8 |  |  |  |  |  |  |  | 0.3 | 
B9 | 0.09 | 1.29 | 64.2 | 49.7 | 1100 | 2.49 |  |  | 130000
B10 | 0.03 | 1.04 | 62.8 | 55.2 | 1000 | 1.44 |  | 0.1 | 
B11 | 0.12 |  |  |  |  | 3.47 |  |  | 
B12 | 0.11 | 1.96 | 58.1 | 43.4 | 1000 | 3.49 |  |  | 
